Experimental data from the RNAGym collection of RNA variant scans (doi:10.7554/elife.80360).

B1: CPEB3 Ribozyme (parent)
chain: GGGGGCCACAGCAGAAGCGUUCACGUCGCGGCCCCUGUCAGAUUCUGGUGAAUCUGCGAAUUCUGCUGU

Variants of: B1
Test: self-cleavage, relative activity (ratio to wild type); higher = more cleavage; co-transcriptional

| Variant | self-cleavage |
| --- | --- |
| GGCGGUCACAGCAGAAGCGUUCACGUCGCGGCCCCUGUCAGAUUCUGGUGAAUCUGCGAAUUCUGCUGU [G3C C6U] | 0.0391 |
| GGCGGGCACAGCAGAAGCGUUCACGUCGCGGCCCCUGUCAGAUUCUGGUGAAUCUGCGAAUUCUGCUGU [G3C C6G] | 0.0449 |
| GGAGGCCACAGCAGAAGCGUUCACGUCGCGGCCCCUGUCAGAUUCUGGUGAAUCUGCGAAUGCUGCUGU [G3A U62G] | 0.392 |
| GGAGGCCACAGCAGAAGCGUUCACGUCGCGGCCCCUGUCAGAUUCUGGUGAAUCUGCGAAUACUGCUGU [G3A U62A] | 0.312 |
| GGAGGCCACAGCAGAAGCGUUCACGUCGCGGCCCCUGUCAGAUUCUGGUGAAUCUGCGAAUCCUGCUGU [G3A U62C] | 0.357 |
| GGCGGCCACAGCAGAAGCGUUCACGUCGCGGCCCCUGUCAGAUUCUGGUGGAUCUGCGAAUUCUGCUGU [G3C A51G] | 0.0762 |
| GGCGGCCACAGCAGAAGCGUUCACGUCGCGGCCCCUGUCAGAUUCUGGUGCAUCUGCGAAUUCUGCUGU [G3C A51C] | 0.0422 |
| GGCGGCGACAGCAGAAGCGUUCACGUCGCGGCCCCUGUCAGAUUCUGGUGAAUCUGCGAAUUCUGCUGU [G3C C7G] | 0.0644 |
| GGCGGCAACAGCAGAAGCGUUCACGUCGCGGCCCCUGUCAGAUUCUGGUGAAUCUGCGAAUUCUGCUGU [G3C C7A] | 0.026 |
| GGCGGCUACAGCAGAAGCGUUCACGUCGCGGCCCCUGUCAGAUUCUGGUGAAUCUGCGAAUUCUGCUGU [G3C C7U] | 0.102 |
| GGAGGCCACAGCAGAAGCGUUCACGUCGCGGCCCCUGUCAGAUUCUGGUGAAUCCGCGAAUUCUGCUGU [G3A U55C] | 0.187 |
| GGAGGCCACAGCAGAAGCGUUCACGUCGCGGCCCCUGUCAGAUUCUGGUGAAUCGGCGAAUUCUGCUGU [G3A U55G] | 0.291 |
| GGCGGCCACAGCAGAAGCGUUCACGUCGCGGCCCCUGUCAGAUUCUGGUGAAUCUGCGAAUUCUGCUGU [G3C] | 0.147 |
| GGAGGCCACAGCAGAAGCGUUCACGUCGCGGCCCCUGUCAGAUUCUGGUGAAUCUGCGAAUUCUGCUGG [G3A U69G] | 0.793 |
| GGAGGCCACAGCAGAAGCGUUCACGUCGCGGCCCCUGUCAGAUUCUGGUGAAUCUGCGAAUUCUGCUGA [G3A U69A] | 0.847 |
| GGCGGCCACAGCAGAAGCGUUCACGUUGCGGCCCCUGUCAGAUUCUGGUGAAUCUGCGAAUUCUGCUGU [G3C C27U] | 0.0443 |
| GGCGGCCACAGCAGAAGCGUUCACGUGGCGGCCCCUGUCAGAUUCUGGUGAAUCUGCGAAUUCUGCUGU [G3C C27G] | 0.06 |
| GGCGGCCACAGCAGAAGCGUUCACGUCGCGGCCCUUGUCAGAUUCUGGUGAAUCUGCGAAUUCUGCUGU [G3C C35U] | 0.0352 |
| GGCGGCCACAGCAGAAGCGUUCACGUCGCGGCCCCUGUCGGAUUCUGGUGAAUCUGCGAAUUCUGCUGU [G3C A40G] | 0 |
| GGCGGCCACAGCAGAAGCGUUCACGUCGCGGCCCCUGUCUGAUUCUGGUGAAUCUGCGAAUUCUGCUGU [G3C A40U] | 0.016 |

| Variant | self-cleavage |
| --- | --- |
| GGCGGCCACAGCAGAAGCGUUCACGUCGCGGCCCCUGUCCGAUUCUGGUGAAUCUGCGAAUUCUGCUGU [G3C A40C] | 0.0512 |
| GGCGGCCACAGCAGGAGCGUUCACGUCGCGGCCCCUGUCAGAUUCUGGUGAAUCUGCGAAUUCUGCUGU [G3C A15G] | 0.113 |
| GGCGGCCACAGCAGCAGCGUUCACGUCGCGGCCCCUGUCAGAUUCUGGUGAAUCUGCGAAUUCUGCUGU [G3C A15C] | 0.0371 |
| GGCGGCCACAGCAGAAGCGUUCACGUCGCGGCCCCUGUCAGAUUUUGGUGAAUCUGCGAAUUCUGCUGU [G3C C45U] | 0.121 |
| GGCGGCCACAGCAGAAGCGUUCACGUCGCGGCCCCUGUCAGAUUAUGGUGAAUCUGCGAAUUCUGCUGU [G3C C45A] | 0.0668 |
| GGAGGCCACAGCAGAAGCGUUCACGUCGCGGCCCCUGUCAGAUUCUGGUGAAUCUGCGAAUUCUGCCGU [G3A U67C] | 0.819 |
| GGAGGCCACAGCAGAAGCGUUCACGUCGCGGCCCCUGUCAGAUUCUGGUGAAUCUGCGAAUUCUGCGGU [G3A U67G] | 0.818 |
| GGCGGCCACAGCAGAAGCGUUCACGUCGCGGCCCCUGUCAGCUUCUGGUGAAUCUGCGAAUUCUGCUGU [G3C A42C] | 0.0214 |
| GGCGGCCACAGCAGAAGCGUUCACGUCGCGGCCCCUGUCAGUUUCUGGUGAAUCUGCGAAUUCUGCUGU [G3C A42U] | 0.0888 |
| GGCGGCCACAGCAGAAGCGUUCACGUCGCGGCCCCUGUGAGAUUCUGGUGAAUCUGCGAAUUCUGCUGU [G3C C39G] | 0.0769 |
| GGCGGCCACAGCAGAAGCGUUCACGUCGCGGCCCCUGUUAGAUUCUGGUGAAUCUGCGAAUUCUGCUGU [G3C C39U] | 0.0426 |
| GGCGGCCACAGAAGAAGCGUUCACGUCGCGGCCCCUGUCAGAUUCUGGUGAAUCUGCGAAUUCUGCUGU [G3C C12A] | 0.0611 |
| GGCGGCCACAGUAGAAGCGUUCACGUCGCGGCCCCUGUCAGAUUCUGGUGAAUCUGCGAAUUCUGCUGU [G3C C12U] | 0.0982 |
| GGCGGCCACAGCAGAAGCGUUCCCGUCGCGGCCCCUGUCAGAUUCUGGUGAAUCUGCGAAUUCUGCUGU [G3C A23C] | 0.0635 |
| GGCGGCCACAGCAGAAGCGUUCGCGUCGCGGCCCCUGUCAGAUUCUGGUGAAUCUGCGAAUUCUGCUGU [G3C A23G] | 0.0477 |
| GGCGGCCACAGCAGAAGCGUUCACGUCGGGGCCCCUGUCAGAUUCUGGUGAAUCUGCGAAUUCUGCUGU [G3C C29G] | 0.0545 |
| GGCGGCCACAGCAGAAGCGUUGACGUCGCGGCCCCUGUCAGAUUCUGGUGAAUCUGCGAAUUCUGCUGU [G3C C22G] | 0.0359 |
| GGCGGCCACAGCAGAAGCGUUUACGUCGCGGCCCCUGUCAGAUUCUGGUGAAUCUGCGAAUUCUGCUGU [G3C C22U] | 0.0738 |
| GGCGGCCACAGCAGAAGCGUUAACGUCGCGGCCCCUGUCAGAUUCUGGUGAAUCUGCGAAUUCUGCUGU [G3C C22A] | 0.0184 |
